According to patent publication US20100285016A1 (Genentech, published 2010):

Molecular target: T1, PRO34128-Fc fusion protein (human, UniProt Q6UXV0 19-351, limits assumed)
T1 construct: Used as conditioned medium; not shown: Fc portion
T1 sequence: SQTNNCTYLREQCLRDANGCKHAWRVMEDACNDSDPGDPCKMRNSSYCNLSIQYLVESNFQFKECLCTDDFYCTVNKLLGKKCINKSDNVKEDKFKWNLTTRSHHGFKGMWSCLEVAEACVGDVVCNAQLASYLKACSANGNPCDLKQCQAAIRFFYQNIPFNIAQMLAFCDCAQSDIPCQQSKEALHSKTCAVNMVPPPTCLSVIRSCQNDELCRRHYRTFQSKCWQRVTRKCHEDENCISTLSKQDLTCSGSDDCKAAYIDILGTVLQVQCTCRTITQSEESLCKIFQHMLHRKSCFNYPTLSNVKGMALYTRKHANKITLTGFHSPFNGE
Assay: co-immunoprecipitation with protein-A beads from mixed conditioned media, anti-FLAG western blot
Protocol: GFR1-Fc, GFR2-Fc, GFR3-Fc, GFR4-Fc and PRO34128-Fc fusion proteins were produced by transfecting appropriate expression constructs using Fugene6™ (Roche Biosciences). C-terminally FLAG-tagged GDNF, NRTN, ARTN, PSPN and LEFTY-B were also produced in 293T cells by transfecting the appropriate expression construct in 293T cells using Fugene6™. All expression constructs are under CMV promoter control. The conditioned media were collected 48 hours post transfection and appropriate Fc fusion proteins (as indicated in the FIG. 6A) were mixed with the ligands and the interacting complexes were immunoprecipitated using protein-A beads (Sigma). Immunoprecipiated proteins were resolved on a SDS-PAGE and detected by western blotting. The co-precipitating FLAG-tagged proteins were detected using an anti-FLAG antibody (Sigma) at a final concentration of 1 μg/ml, HRP-conjugated anti-mouse antibody (ICN Biosciences) and a chemiluminescent substrate (Amersham).

| Binder | binding result |
| --- | --- |
| C-terminally FLAG-tagged PSPN (ligand, UniProt O60542 61-156, looked up, Produced in 293T cells and used as conditioned medium; not shown: C-terminal FLAG tag) ALSGPCQLWSLTLSVAELGLGYASEEKVIFRYCAGSCPRGARTQHGLALARLQGQGRAHGGPCCRPTRYTDVAFLDDRHRWQRLPQLSAAACGCGG | no binding |
| C-terminally FLAG-tagged NRTN (ligand, UniProt Q99748 96-197, looked up, Produced in 293T cells and used as conditioned medium; also called neurturin; not shown: C-terminal FLAG tag) ARLGARPCGLRELEVRVSELGLGYASDETVLFRYCAGACEAAARVYDLGLRRLRQRRRLRRERVRAQPCCRPTAYEDEVSFLDAHSRYHTVHELSARECACV | no binding |
| C-terminally FLAG-tagged ARTN (ligand, UniProt Q5T4W7 108-220, looked up, Produced in 293T cells and used as conditioned medium; not shown: C-terminal FLAG tag) AGGPGSRARAAGARGCRLRSQLVPVRALGLGHRSDELVRFRFCSGSCRRARSPHDLSLASLLGAGALRPPPGSRPVSQPCCRPTRYEAVSFMDVNSTWRTVDRLSATACGCLG | no binding |
